Measurements from the supplement of paper PMC7877785.
± gives the uncertainty stated by the source.

Assay: self-splicing fitness, log relative to wild type (ln ratio); higher = more splicing; Tetrahymena group I intron in knt gene, E. coli kanamycin selection, DiMSum; sequences stand for … in CUCUCU…GGAGGGAAAAGUUAUCAGGCAUGCACCUGGUAGCUAGUCUUUAAACCAAUAGAUUGCAUCGGUUUAAAAGGCAAGACCGUCAAAUUGCGGGAAAGGGGUCAACAGCCGUUCAGUACCAAGUCUCAGGGGAAACUUUGAGAUGGCCUUGCAAAGGGUAUGGUAAUAAGCUGACGGACAUGGUCCUAACCACGCAGCCAAGUCCUAAGUCAACAGAUCUUCUGUUGAUAUGGAUGCAGUUCACAGACUAAAUGUCGGUCGGGGAAGAUGUAUUCUUCUCAUAAGAUAUAGUCGGACCUCUCCUUAAUGGGAGCUAGCGGAUGAAGUGAUGCAACACUGGAGCCGCUGGGAACUAAUUUGUAUGCGAAAGUAUAUUGAUUAGUUUUGGAGUACUCGUGGUCG
Outline: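 Colonies from six replicate transformations of E. coli BL21(DE3) were pooled and amplicon-sequenced on an Illumina HiSeq 2500. The library placed an intron with all eight P1ex-region nucleotides randomised inside the knt kanamycin-resistance gene on pET-22b(+), and cells grew overnight at 37°C or 30°C on LB agar with or without 25 μg/mL kanamycin (plus 100 μg/mL carbenicillin, 50 μM IPTG, 0.2% rhamnose). Fitness is the DiMSum error-weighted combination of wild-type-normalised replicate fold changes, kanamycin versus none.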

| Sequence | self-splicing fitness (ln) (30 °C) | self-splicing fitness (ln) (37 °C) |
| --- | --- | --- |
| ACAAAGCAAUAUUACGUAUA | -2.79 ± 0.2 | -2.09 ± 0.22 |
| ACAAAGCAAUAUUACGUUAU | -2.81 ± 0.089 | -1.5 ± 0.089 |
| ACAAAGCAAUAUUACGUUUG | -2.98 ± 0.1 | -1.65 ± 0.12 |
| ACACAGCAAUAUUACGAACA | -1.69 ± 0.082 | -1.18 ± 0.079 |
| ACACAGCAAUAUUACGACGC | -0.0854 ± 0.07 | 0.622 ± 0.093 |
| ACACAGCAAUAUUACGAGGC | -3.49 ± 0.17 | -3.41 ± 0.29 |
| ACACAGCAAUAUUACGAGUU | -3.49 ± 0.14 | -2.18 ± 0.14 |
| ACACAGCAAUAUUACGAUCA | -1.39 ± 0.084 | -0.858 ± 0.095 |
| ACACAGCAAUAUUACGAUGU | -3.46 ± 0.1 | -1.18 ± 0.08 |
| ACACAGCAAUAUUACGCCGC | -3.21 ± 0.34 | -1.68 ± 0.16 |
| ACACAGCAAUAUUACGCCUA | -0.959 ± 0.065 | -0.392 ± 0.067 |
| ACACAGCAAUAUUACGCGCU | -0.741 ± 0.059 | -0.491 ± 0.068 |
| ACACAGCAAUAUUACGCUCU | -0.902 ± 0.069 | -0.159 ± 0.075 |
| ACACAGCAAUAUUACGGCCG | -0.675 ± 0.095 | -0.395 ± 0.12 |
| ACACAGCAAUAUUACGGCUA | -0.536 ± 0.071 | -0.218 ± 0.074 |
| ACACAGCAAUAUUACGGUCC | -1.31 ± 0.073 | -0.868 ± 0.089 |
| ACACAGCAAUAUUACGGUUC | -3.81 ± 0.14 | -2.03 ± 0.12 |
| ACACAGCAAUAUUACGUAUC | -3.71 ± 0.15 | -2.8 ± 0.15 |
| ACACAGCAAUAUUACGUAUG | -2.32 ± 0.076 | -1.9 ± 0.098 |
| ACACAGCAAUAUUACGUCAC | -3.22 ± 0.16 | -2.86 ± 0.27 |
| ACACAGCAAUAUUACGUCGU | -2.67 ± 0.11 | -1.58 ± 0.12 |
| ACACAGCAAUAUUACGUCUC | -3.26 ± 0.099 | -1.25 ± 0.08 |
| ACACAGCAAUAUUACGUCUG | -1.65 ± 0.055 | -0.547 ± 0.061 |
| ACACAGCAAUAUUACGUGCA | -0.241 ± 0.051 | -0.395 ± 0.063 |
| ACACAGCAAUAUUACGUUAC | -3.18 ± 0.15 | -2.14 ± 0.17 |
| ACAGAGCAAUAUUACGAAAG | -3.24 ± 0.19 | -1.46 ± 0.16 |

| Sequence | self-splicing fitness (ln) (30 °C) | self-splicing fitness (ln) (37 °C) |
| --- | --- | --- |
| ACAGAGCAAUAUUACGAACG | -2.76 ± 0.19 | -1.45 ± 0.28 |
| ACAGAGCAAUAUUACGACGC | -1.19 ± 0.13 | -0.298 ± 0.14 |
| ACAGAGCAAUAUUACGAGUA |  | -2.34 ± 0.27 |
| ACAGAGCAAUAUUACGAUAU | -3.55 ± 0.29 | -2.62 ± 0.32 |
| ACAGAGCAAUAUUACGAUUG | -2.95 ± 0.26 | -3.3 ± 0.3 |
| ACAGAGCAAUAUUACGAUUU | -3.03 ± 0.14 | -1.71 ± 0.13 |
| ACAGAGCAAUAUUACGCAGU |  | -2.62 ± 0.4 |
| ACAGAGCAAUAUUACGCCGA | -2.95 ± 0.48 | -2.76 ± 0.38 |
| ACAGAGCAAUAUUACGCCUG |  | -1.94 ± 0.46 |
| ACAGAGCAAUAUUACGCGUG | -1.81 ± 0.081 | -1.87 ± 0.1 |
| ACAGAGCAAUAUUACGCUCC |  | -1.45 ± 0.42 |
| ACAGAGCAAUAUUACGGAGG | -3.8 ± 0.33 | -1.39 ± 0.24 |
| ACAGAGCAAUAUUACGGCUU | -3.27 ± 0.23 | -1.99 ± 0.18 |
| ACAGAGCAAUAUUACGGUGU | -3.8 ± 0.15 | -3.02 ± 0.22 |
| ACAGAGCAAUAUUACGUAGG | -3.59 ± 0.14 | -1.61 ± 0.13 |
| ACAGAGCAAUAUUACGUCGC | -2.98 ± 0.31 | -3.02 ± 0.31 |
| ACAGAGCAAUAUUACGUUCC | -2.89 ± 0.32 | -1.81 ± 0.34 |
| ACAGAGCAAUAUUACGUUCU | -3.89 ± 0.26 | -3.29 ± 0.29 |
| ACAGAGCAAUAUUACGUUUA | -3.01 ± 0.15 | -3.24 ± 0.23 |
| ACAGAGCAAUAUUACGUUUG | -3.85 ± 0.25 | -3.07 ± 0.24 |
| ACAUAGCAAUAUUACGAAGU | -2.67 ± 0.21 | -2.85 ± 0.23 |
| ACAUAGCAAUAUUACGAAUC | -3.23 ± 0.2 | -2.78 ± 0.28 |
| ACAUAGCAAUAUUACGACAG | -1.46 ± 0.099 | -0.508 ± 0.11 |
| ACAUAGCAAUAUUACGACCC | -0.944 ± 0.36 | -0.798 ± 0.32 |
| ACAUAGCAAUAUUACGACGU | 0.079 ± 0.081 | 0.0804 ± 0.083 |
| ACAUAGCAAUAUUACGACUA | -0.666 ± 0.11 | -0.473 ± 0.1 |

| Sequence | self-splicing fitness (ln) (30 °C) | self-splicing fitness (ln) (37 °C) |
| --- | --- | --- |
| ACAUAGCAAUAUUACGAGGG | -3.52 ± 0.19 | -3.05 ± 0.29 |
| ACAUAGCAAUAUUACGAUAA | -2.16 ± 0.13 | -1.72 ± 0.17 |
| ACAUAGCAAUAUUACGAUGC | -3.16 ± 0.15 | -0.811 ± 0.12 |
| ACAUAGCAAUAUUACGCAGU | -3.57 ± 0.28 | -2.84 ± 0.36 |
| ACAUAGCAAUAUUACGCAUU | -3.32 ± 0.11 | -2.46 ± 0.13 |
| ACAUAGCAAUAUUACGCGAC | -3.68 ± 0.42 | -0.813 ± 0.18 |
| ACAUAGCAAUAUUACGGCAG | -1.29 ± 0.11 | -0.918 ± 0.16 |
| ACAUAGCAAUAUUACGGCGA | -0.475 ± 0.09 | -0.0687 ± 0.1 |
| ACAUAGCAAUAUUACGGGCA | -1.57 ± 0.11 | -1.76 ± 0.098 |
| ACAUAGCAAUAUUACGGUGC | -3.84 ± 0.25 | -2.54 ± 0.21 |
| ACAUAGCAAUAUUACGGUGG | -3.62 ± 0.14 | -2.14 ± 0.12 |
| ACAUAGCAAUAUUACGGUUU | -2.13 ± 0.057 | -0.763 ± 0.071 |
| ACAUAGCAAUAUUACGUACA | -2.25 ± 0.16 | -1.25 ± 0.12 |
| ACAUAGCAAUAUUACGUAUA | -3.09 ± 0.22 | -1.78 ± 0.21 |
| ACAUAGCAAUAUUACGUCGU | -2.92 ± 0.11 | -2.33 ± 0.13 |
| ACAUAGCAAUAUUACGUGAU | -1.7 ± 0.061 | -1.2 ± 0.088 |
| ACAUAGCAAUAUUACGUGCU | -0.99 ± 0.072 | -1.1 ± 0.085 |
| ACCAAGCAAUAUUACGAAUC | -1.48 ± 0.18 | -1.4 ± 0.2 |
| ACCAAGCAAUAUUACGACCC | -1.37 ± 0.096 | -0.181 ± 0.15 |
| ACCAAGCAAUAUUACGACUC | -1.56 ± 0.17 | -0.459 ± 0.2 |
| ACCAAGCAAUAUUACGACUG | -1.11 ± 0.062 | -1.07 ± 0.099 |
| ACCAAGCAAUAUUACGAUUG | -2.86 ± 0.13 | -3.02 ± 0.16 |
| ACCAAGCAAUAUUACGCAGU | -3.71 ± 0.22 | -2.77 ± 0.28 |
| ACCAAGCAAUAUUACGCGAG | -2.46 ± 0.076 | -1.27 ± 0.072 |
| ACCAAGCAAUAUUACGCGUC | -3.45 ± 0.2 | -2.46 ± 0.22 |
